For assay [1], the target named is T1, unknown natural tumor antigen of the autologous tumor organoids of patient CRC4 peptide on (human). Briefly: CD137 sort of CD8+ oeT cells after 24 h restimulation with autologous tumor organoids (cells that express the antigen), single-cell RT-PCR; 0% in TIL alone; ex vivo sorted cells.
The target in assay [2] is T2, unknown natural tumor antigen of the autologous tumor organoids of patient CRC1 peptide on (human). In words: CD137 sort of CD8+ oeT cells after 24 h restimulation with autologous tumor organoids (cells that express the antigen), single-cell RT-PCR; 4.3% in TIL alone; ex vivo sorted cells. The note with it: chains alpha TRAV35*02 TRAJ10*01 CDR3:beta TRBV6-1*01 TRBJ1-2*01 CDR3.

In assay [3] the target is T3, unknown natural tumor antigen of the autologous tumor organoids of patient CRC3 peptide on (human). In words: CD137 sort of CD8+ oeT cells after 24 h restimulation with autologous tumor organoids (cells that express the antigen), single-cell RT-PCR; 0% in TIL alone; ex vivo sorted cells. The note with it: chains alpha TRAV10*01 TRAJ4*01 CDR3:beta TRBV9*01 TRBJ1-2*01 CDR3.

Assay [4] deals with T3, unknown natural tumor antigen of the …. Briefly: CD137 sort of CD8+ oeT cells after 24 h restimulation with autologous tumor organoids (cells that express the antigen), single-cell RT-PCR; 1.3% in TIL alone; ex vivo sorted cells. The note with it: chains alpha TRAV10*01 TRAJ16*02 CDR3:beta TRBV10-3*02 TRBJ2-1*01 CDR3.
Assay [5] has the same target. In words: CD137 sort of CD8+ oeT cells after 24 h restimulation with autologous tumor organoids (cells that express the antigen), single-cell RT-PCR; 3% in TIL alone; ex vivo sorted cells. The note with it: chains alpha TRAV14/DV4*01 TRAJ45*01 CDR3:beta TRBV20-1*01 TRBJ2-1*01 CDR3.
The target in assay [6] is T2, unknown natural tumor antigen of the …. Briefly: CD137 sort of CD8+ oeT cells after 24 h restimulation with autologous tumor organoids (cells that express the antigen), single-cell RT-PCR; 2.5% in TIL alone; ex vivo sorted cells. The note with it: chains alpha TRAV24*01 TRAJ12*01 CDR3:beta TRBV28*01 TRBJ1-2*01 CDR3.
Assay [7] shares this target. In words: CD137 sort of CD8+ oeT cells after 24 h restimulation with autologous tumor organoids (cells that express the antigen), single-cell RT-PCR; 1.2% in TIL alone; ex vivo sorted cells. The note with it: chains alpha TRAV36/DV7*04 TRAJ30*01 CDR3:beta TRBV6-5*01 TRBJ2-2*01 CDR3.
Assay [8] deals with T4, unknown natural tumor antigen of the autologous tumor organoids of patient CRC2 peptide on (human). In words: CD137 sort of CD8+ oeT cells after 24 h restimulation with autologous tumor organoids (cells that express the antigen), single-cell RT-PCR; 2.8% in TIL alone; ex vivo sorted cells. The note with it: chains alpha TRAV23/DV6*01 TRAJ45*01 CDR3:beta TRBV9*01 TRBJ2-1*01 CDR3.

Assay [9] concerns the target T3, unknown natural tumor antigen of the …. In words: CD137 sort of CD8+ oeT cells after 24 h restimulation with autologous tumor organoids (cells that express the antigen), single-cell RT-PCR; 0.4% in TIL alone; ex vivo sorted cells. The note with it: chains alpha TRAV8-6*02 TRAJ20*01 CDR3:beta TRBV6-1*01 TRBJ1-3*01 CDR3.
For assay [10], the target named is T4, unknown natural tumor antigen of the …. In words: CD137 sort of CD8+ oeT cells after 24 h restimulation with autologous tumor organoids (cells that express the antigen), single-cell RT-PCR; 0.5% in TIL alone; ex vivo sorted cells.
Assay [11] has the same target. In words: CD137 sort of CD8+ oeT cells after 24 h restimulation with autologous tumor organoids (cells that express the antigen), single-cell RT-PCR; 1.1% in TIL alone; ex vivo sorted cells.
Assay [12] addresses T2, unknown natural tumor antigen of the …. In words: CD137 sort of CD8+ oeT cells after 24 h restimulation with autologous tumor organoids (cells that express the antigen), single-cell RT-PCR; 3.6% in TIL alone; ex vivo sorted cells. The note with it: chains alpha TRAV35*02 TRAJ10*01 CDR3:beta TRBV28*01 TRBJ2-2*01 CDR3.
Assay [13] concerns the target T1, unknown natural tumor antigen of the …. In words: CD137 sort of CD8+ oeT cells after 24 h restimulation with autologous tumor organoids (cells that express the antigen), single-cell RT-PCR; 2.4% in TIL alone; ex vivo sorted cells. The note with it: chains alpha TRAV20*01 TRAJ4*01 CDR3:beta TRBV12-3*01 TRBJ1-5*01 CDR3.

B1: TCR20 (peptide)
chain 1: AENMGFQKLV
chain 2: AWTQGANGYT
Regarding B1, the frequency among sorted CD8+CD137+ PDO(T)-oeT cells in assay [1] (chains alpha TRAV13-2*01 TRAJ8*01 CDR3:beta TRBV30*01 TRBJ1-2*01 CDR3) is 7.1%.

B2: TCR1 (peptide)
chain 1: AGVTGGGNKLT
chain 2: ASSEGTGFYGYT
The molecule B2 came in with a frequency among sorted CD8+CD137+ PDO(T)-oeT cells in assay [2] of 25.6%.

B3: TCR14 (peptide)
chain 1: VVSFSGGYNKLI
chain 2: ASSVGDRDYGYT
In the case of B3, the frequency among sorted CD8+CD137+ PDO(T)-oeT cells in [3] turned out to be 4%.

B4: TCR12 (peptide)
chain 1: VSGFSDGQKLL
chain 2: ATTKTGERPDEQF
With B4, in assay [4], the frequency among sorted CD8+CD137+ PDO(T)-oeT cells was 8%.

B5: TCR13 (peptide)
chain 1: ANDSGGGADGLT
chain 2: SARGLLGGRAREQF
Regarding B5, the frequency among sorted CD8+CD137+ PDO(T)-oeT cells in assay [5] was 4%.

B6: TCR3 (peptide)
chain 1: APWMDSSYKLI
chain 2: ASSIGGHDGYT
As for B6, in [6], the frequency among sorted CD8+CD137+ PDO(T)-oeT cells came to 6.7%.

B7: TCR5 (peptide)
chain 1: AVSRDDKII
chain 2: ASSYVGNTGELF
In assay [7], B7 yielded a frequency among sorted CD8+CD137+ PDO(T)-oeT cells of 5%.

B8: TCR8 (peptide)
chain 1: ALKAGGGASKLT
chain 2: ASSVGGGVDEQF
On to B8, for which the frequency among sorted CD8+CD137+ PDO(T)-oeT cells in assay [8] was 9.3%.

B9: TCR15 (peptide)
chain 1: AVSGRSNDYKLS
chain 2: ASSEKRQGAGNTIY
B9: the frequency among sorted CD8+CD137+ PDO(T)-oeT cells in assay [9] came out at 3%.

B10: TCR10 (peptide)
chain 1: AASPPGGSQGNLI
chain 2: ASSHRTSSRGEQF
B10 gave a frequency among sorted CD8+CD137+ PDO(T)-oeT cells in assay [10] (chains alpha TRAV13-1*01 TRAJ42*01 CDR3:beta TRBV4-1*01 TRBJ2-1*01 CDR3) of 3.1%.

B11: TCR19 (peptide)
chain 1: AVGRGYGQNFV
chain 2: ASSQDGGLNEKLF
Regarding B11, the frequency among sorted CD8+CD137+ PDO(T)-oeT cells in assay [1] (chains alpha TRAV22*01 TRAJ26*01 CDR3:beta TRBV4-3*01 TRBJ1-4*01 CDR3) worked out at 7.7%.

B12: TCR6 (peptide)
chain 1: AVGDNFNKFY
chain 2: ASSYVGNTGELF
Molecule B12 had a frequency among sorted CD8+CD137+ PDO(T)-oeT cells in assay [11] (chains alpha TRAV8-3*01 TRAJ21*01 CDR3:beta TRBV28*01 TRBJ2-2*01 CDR3) of 13.4%.

B13: TCR2 (peptide)
chain 1: AGVTGGGNKLT
chain 2: ASSLTSASGELF
Molecule B13 came in with a frequency among sorted CD8+CD137+ PDO(T)-oeT cells in assay [12] of 17.8%.

B14: TCR9 (peptide)
chain 1: AVRGTLSGGSYIPT
chain 2: ASSATSASGELF
Turning to B14, the frequency among sorted CD8+CD137+ PDO(T)-oeT cells in [11] (chains alpha TRAV1-2*01 TRAJ6*01 CDR3:beta TRBV28*01 TRBJ2-2*01 CDR3) is 8.2%.

B15: TCR18 (peptide)
chain 1: AVRDEGARLM
chain 2: ASSIFSGTGGADTQY
As to B15, the frequency among sorted CD8+CD137+ PDO(T)-oeT cells in [1] (chains alpha TRAV3*01 TRAJ31*01 CDR3:beta TRBV9*01 TRBJ2-3*01 CDR3) stood at 10.3%.

B16: TCR7 (peptide)
chain 1: AMREGADSWGKFQ
chain 2: ASSLHGRGDEKLF
Consider B16, for which the frequency among sorted CD8+CD137+ PDO(T)-oeT cells in assay [10] (chains alpha TRAV14/DV4*03 TRAJ24*03 CDR3:beta TRBV28*01 TRBJ1-4*01 CDR3) was found to be 12.4%.

B17: TCR17 (peptide)
chain 1: AVFSGGYNKLI
chain 2: ASSLEFYSNQPQH
In turn, B17 yielded a frequency among sorted CD8+CD137+ PDO(T)-oeT cells in assay [13] of 13.5%.

The record behind these values is PMC11219989.
